Laboratory results reported in paper doi:10.1101/2020.04.07.029900, “Pat1 increases the range of decay factors and RNA bound by the Lsm1-7 complex” (bioRxiv, 2020).

B1: PatMC (middle and C-terminal domains of Pat1, residues 296-754) (domain or fragment, S. pombe, UniProt O42958 296-754, looked up)
chain: LDEKRQKLERDHMLMAQCAGLMTRSDKSFIARIQISQLMSEDPESDDFYYRVYSIIRGRKPSEEEASHFIQTYLGPSNNRRRGRRSENPMQKLQQQLQRLVSSAKERPKATQLSLEGALGKIAVNTVRTPRQLLNVKRPTEPASSNSSLNNFSGFSTKKDVLHAIEKVYDLLLDFEQALRKASTLETTDQEQIDTWKTTLSEKLESIWKALYINESLEASSKTRPPFISIISHPKGMRLLPRLFPHLSKEQQISILKVVVYNFDSLDIVLRGTFDVNGELPLDVVSEMSSFTQFIIPPLLTIVNELDLETINNLFSQLLNRTNAVYLIQTKIGLSFLTLFISRAEILKQSGTVNQNEKEEWENTFNVMFNRVKGHFSTVFPPPNARAYADESYPWEFLAACATAASSEQHFTLVSETRDRVLDNIITSKRAPSEIAVVRISNVNLFLNAMGLDARQLSA
notes: Pat1, S. pombe, middle and C-terminal domains (PatMC), residues 296-754; codon optimized gene in site two of pET-Duet; No tag is told for PatMC in the co-expression construct; source: E. coli BL21(DE3)*, co-expressed with Lsm1-7 from pET-Duet, co-purified (Ni-NTA, heparin, Superdex 200)
B2: PatMC/Lsm1-7 complex (complex)
chain 1: B1 chain
chain 2: MNQATQIIPFTTSGSLVDYVDRKVIVVLRDGKKLIGILRSFDQFANLMLQYTIERIYVDDMYGDIDRGVYIVRGENVVLLGELDLDKEYDAVKQLRRMPAEELYPLAKLHEEEKKKNIREKGKYLHSVGFSVDGGHDDLY
chain 3: MLFYSFFKTLIDTEVTVELKNDMSIRGILKSVDQFLNVKLENISVVDASKYPHMAAVKDLFIRGSVVRYVHMSSAYVDTILLADACRRDLANNKRQ
chain 4: not shown
chain 5: MLPLTLLNATQGRPILVELKNGETFNGHLENCDNYMNLTLREVIRTMPDGDKFFRLPECYIRGNNIKYLRIQDEVLSQVAKQQAQQRENRGSRFRGRGQRGRGNYGHTAPNRRGRGRGGHM
chain 6: not shown
chain 7: MDSSPNEFLNKVIGKKVLIRLSSGVDYKGILSCLDGYMNLALERTEEYVNGKKTNVYGDAFIRGNNVLYVSALDD
chain 8: MSSLQKRPGPGNSSQPTERPRKESILDLSRYQDQRIQATFTGGRQITGILKGFDQLMNLVLDDVEEQLRNPEDGKLTGAIRKLGLVVVRGTTLVLIAPMDGSEEIPNPFVQAE
notes: Pat1, S. pombe, middle and C-terminal domains (PatMC), residues 296-754; codon optimized gene in site two of pET-Duet; Lsm1, S. pombe; from a polycistron of all seven Lsm proteins; Lsm2, S. pombe; Lsm3, S. pombe; Lsm4, S. pombe; Lsm5, S. pombe; Lsm6, S. pombe; Lsm7, S. pombe; Heterooctamer, expected mass of the monomeric complex 133 kDa; TEV was added before gel filtration to remove the His6 tag …

What was measured:
Lsm1-7 complex = target: T1, Lsm1-7 complex (S. pombe, UniProt P87173 1-140; O94408 1-96; Q9Y7M4 1-93; O14352 1-121; O42978 1-80; Q9UUI1 1-75; …); test: SEC; PatMC co-expressed with His6-Lsm1-7 in E. coli, co-purified on Ni-NTA and heparin, TEV, then preparative Superdex 200 16/60 in 400 mM NaCl, 20 mM HEPES 7.0, 1 mM DTT; SDS-PAGE of the complex; settings: both partners purified
T1 construct: Lsm1, S. pombe; from a polycistron of all seven Lsm proteins; Lsm2, S. pombe; Lsm3, S. pombe; Lsm4, S. pombe; Lsm5, S. pombe; Lsm6, S. pombe; Lsm7, S. pombe; Expected mass of the monomeric complex 81 kDa; In the droplet experiment 0.1 uM of it carried Alexa Fluor 555 maleimide; In the co-purification with PatMC the His6 tag on Lsm1 was present on Ni-NTA and cut by TEV before gel filtration; also …

[1] = target: the molecule itself; test: AUC; sedimentation velocity, 9.3 uM PatMC/Lsm1-7 without RNA, 250 mM NaCl, 20 mM HEPES pH 7.0, 1 mM DTT, 30,000 rpm, 10-12 hours
[2] = target: the molecule itself; test: AUC; sedimentation velocity, 9.3 uM PatMC/Lsm1-7 with stoichiometric A15 RNA, 250 mM NaCl, 20 mM HEPES pH 7.0, 1 mM DTT, 30,000 rpm, 10-12 hours

T1 sequence (Q9Y7M4 whole entry, chain 3 of 2): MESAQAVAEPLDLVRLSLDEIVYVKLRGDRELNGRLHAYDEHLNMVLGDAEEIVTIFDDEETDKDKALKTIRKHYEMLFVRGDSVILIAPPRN
T1 sequence (O42978 whole entry, chain 5 of 2): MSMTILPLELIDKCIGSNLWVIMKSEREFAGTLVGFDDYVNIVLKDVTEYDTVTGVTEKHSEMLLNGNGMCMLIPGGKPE

Binder	binding result (Lsm1-7 complex)	stoichiometry N [1]	stoichiometry N [2]
B1	binds		
B2		2	4
